Experimental data from paper PMC5861432.

T1: IRF3(6D) (human, UniProt Q14653 1-427, S386D;S396D;S398D;S402D;T404D;S405D)
T1 sequence: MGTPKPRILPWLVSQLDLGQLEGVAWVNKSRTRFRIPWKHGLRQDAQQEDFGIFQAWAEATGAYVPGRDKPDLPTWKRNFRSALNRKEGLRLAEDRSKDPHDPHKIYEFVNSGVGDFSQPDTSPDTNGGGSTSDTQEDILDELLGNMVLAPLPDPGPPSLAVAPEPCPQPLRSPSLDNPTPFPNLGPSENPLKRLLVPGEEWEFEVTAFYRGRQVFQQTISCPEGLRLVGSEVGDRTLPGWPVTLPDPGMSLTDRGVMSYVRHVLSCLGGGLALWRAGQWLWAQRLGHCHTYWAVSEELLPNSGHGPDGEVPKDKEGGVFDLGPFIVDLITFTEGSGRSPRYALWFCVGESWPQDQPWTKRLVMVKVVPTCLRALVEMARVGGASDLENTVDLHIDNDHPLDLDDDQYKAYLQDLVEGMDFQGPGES

B1: proximal dimer (2-bp spacer) (dsDNA)
DNA 1: GCACCGCTAACCGAAACCGAAACTGTGC
DNA 2: GCACAGTTTCGGTTTCGGTTAGCGGTGC
B2: C-2 PBM probe (dsDNA)
DNA 1: GCCTAGCACTAACCGAAACCGAAACCTAAGTGCTAGGTCTTGATTCGCTTGACGCTGCTG
DNA 2: CAGCAGCGTCAAGCGAATCAAGACCTAGCACTTAGGTTTCGGTTTCGGTTAGTGCTAGGC

Columns and labels:
IRF3(6D) [1] = molecular target: T1, IRF3(6D); assay: EMSA
IRF3(6D) [2] = molecular target: T1, IRF3(6D); assay: PBM
IRF5(4D) = IRF5(4D) (human, UniProt Q13568-2 1-514, S451D;S453D;S456D;S462D); assay: PBM

Row | Binder | binding result (IRF3(6D) [1]) | binding result (IRF3(6D) [2]) | binding result (IRF5(4D))
1 | B1 | binds | – | –
2 | B2 | – | binds | binds
